# From IntAct's records for PubMed 19013276
# B1: Cell cycle serine/threonine-protein kinase CDC5/MSD2 (Saccharomyces cerevisiae), P32562 (parent)
# chain: MSLGPLKAINDKQLNTRSKLVHTPIKGNTADLVGKENHFKQTKRLDPNNDHHHQPAQKKKREKLSALCKTPPSLIKTRGKDYHRGHFLGEGGFARCFQIKDDSGEIFAAKTVAKASIKSEKTRKKLLSEIQIHKSMSHPNIVQFIDCFEDDSNVYILLEICPNGSLMELLKRRKVLTEPEVRFFTTQICGAIKYMHSRRVIHRDLKLGNIFFDSNYNLKIGDFGLAAVLANESERKYTICGTPNYIAPEVLMGKHSGHSFEVDIWSLGVMLYALLIGKPPFQARDVNTIYERIKCRDFSFPRDKPISDEGKILIRDILSLDPIERPSLTEIMDYVWFRGTFPPSIPSTVMSEAPNFEDIPEEQSLVNFKDCMEKSLLLESMSSDKIQRQKRDYISSIKSSIDKLEEYHQNRPFLPHSLSPGGTKQKYKEVVDIEAQRRLNDLAREARIRRAQQAVLRKELIATSTNVIKSEISLRILASECHLTLNGIVEAEAQYKMGGLPKSRLPKIKHPMIVTKWVDYSNKHGFSYQLSTEDIGVLFNNGTTVLRLADAEEFWYISYDDREGWVASHYLLSEKPRELSRHLEVVDFFAKYMKANLSRVSTFGREEYHKDDVFLRRYTRYKPFVMFELSDGTFQFNFKDHHKMAISDGGKLVTYISPSHESTTYPLVEVLKYGEIPGYPESNFREKLTLIKEGLKQKSTIVTVD
# partner: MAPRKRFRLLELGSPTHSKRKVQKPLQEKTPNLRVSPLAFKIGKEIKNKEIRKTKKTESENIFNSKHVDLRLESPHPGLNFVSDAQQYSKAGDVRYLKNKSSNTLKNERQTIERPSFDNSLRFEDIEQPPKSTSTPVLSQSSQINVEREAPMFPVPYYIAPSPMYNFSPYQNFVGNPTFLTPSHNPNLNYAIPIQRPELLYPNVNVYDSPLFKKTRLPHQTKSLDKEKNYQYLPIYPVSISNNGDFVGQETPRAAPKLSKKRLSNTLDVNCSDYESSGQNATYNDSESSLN
# Variants of: B1
# Conditions: with spo13_yeast SPO13, P23624
row,effect of a mutation on the interaction,Variant
1,decreasing interaction,W517A;V518A;L530A

# Variants of: B1
# Conditions: with spo13_yeast SPO13, P23624
# Remark: another data set of the same source
row,effect of a mutation on the interaction,Variant
1,decreasing interaction,W517A;V518A;L530A
